Laboratory results from patent US20200181243A1.
Where two headings read alike, the source gives them in different places.

What was measured:
Hemagglutinin (HA) [1] = target: Hemagglutinin (HA)
Hemagglutinin (HA) [2] = test: Hemagglutinin (HA) binding ELISA potency; antibody in Formulation #3, t=0

B1: Ab 044 (antibody, V domains shown)
VH: QVQLLETGGGLVKPGQSLKLSCAASGFTFTSYAMHWVRQPPGKGLEWVAVVSYDGNYKYYADSVQGRFTISRDNSKNTLYLQMNSLRAEDTAVYYCAKDSRLRSLLYFEWLSQGYFNPWGQGTTLTVSS
VL: DIQMTQSPSSLSASVGDRVTITCRSSQSITFDYKNYLAWYQQKPGKAPKLLIYWGSYLESGVPSRFSGSGSGTDFTLTISSLQPEDFATYYCQQHYRTPPSFGQGTKVEIK
Hemagglutinin (HA) [1]
  % Activity: 97%
  Average % Activity: 110%
Hemagglutinin (HA) [2]
  % Activity: 123%
